Our source for the absorbance values is article doi:10.1101/2020.04.28.065904.

The target of this experiment is aa defensin C (mature Aedes albopictus defensin C peptide) (Aedes albopictus). Description: ELISA.

Regarding “JEV E protein (recombinant) (natural protein)”, the absorbance was 0.95.
As to “JEV ED III protein (ED III domain of the E protein, recombinant) (domain or fragment)”, the absorbance was found to be 1.17.
